The target in this assay is His-tagged dimeric ϕO11 Dut (S. aureus phage ϕO11). The experiment in a line: crystal structure; ϕO11 Dut (10 mg/ml) with 0.5 mM dUPNPP and 5 mM MgCl2; sitting drop at 21°C; 0.2 M magnesium chloride, 0.1 M Tris-HCl pH 8.5, 20% PEG 8000; 2.1 Å.

As for His-tagged dimeric ϕO11 Dut (enzyme), the stoichiometry N came out at 2.

These data come from publication PMC5779228.
